Results: patent publication US10793631B2, “Human PAC1 antibodies” (AMGEN INC., priority 2013, dated 2020)
pEC50: −log10 of the molar value.

Experiments:
Format in all cases: cell-based
[1] = molecular target: T1, PAC1 (Homo sapiens, UniProt P41586); assay: Activity and selectivity of PAC1 agonists on PAC1
T1 sequence (P41586 21-468): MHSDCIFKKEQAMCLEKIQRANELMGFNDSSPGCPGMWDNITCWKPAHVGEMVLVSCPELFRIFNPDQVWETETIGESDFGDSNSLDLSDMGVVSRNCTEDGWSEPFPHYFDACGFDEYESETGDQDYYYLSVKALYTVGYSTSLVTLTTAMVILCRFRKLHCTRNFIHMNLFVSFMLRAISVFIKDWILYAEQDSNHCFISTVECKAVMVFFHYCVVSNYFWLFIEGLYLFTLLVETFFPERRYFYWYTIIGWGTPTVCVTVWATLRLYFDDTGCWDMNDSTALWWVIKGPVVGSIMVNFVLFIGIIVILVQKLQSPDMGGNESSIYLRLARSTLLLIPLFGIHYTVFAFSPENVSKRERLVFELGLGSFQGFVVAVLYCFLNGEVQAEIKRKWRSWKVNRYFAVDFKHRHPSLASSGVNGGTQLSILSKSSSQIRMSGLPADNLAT

[2] = molecular target: T2, VPAC1 (Homo sapiens, UniProt P32241); assay: Activity and selectivity of PAC1 agonists on VPAC1; conditions: receptor agonist on VPAC1
T2 sequence (P32241 31-457): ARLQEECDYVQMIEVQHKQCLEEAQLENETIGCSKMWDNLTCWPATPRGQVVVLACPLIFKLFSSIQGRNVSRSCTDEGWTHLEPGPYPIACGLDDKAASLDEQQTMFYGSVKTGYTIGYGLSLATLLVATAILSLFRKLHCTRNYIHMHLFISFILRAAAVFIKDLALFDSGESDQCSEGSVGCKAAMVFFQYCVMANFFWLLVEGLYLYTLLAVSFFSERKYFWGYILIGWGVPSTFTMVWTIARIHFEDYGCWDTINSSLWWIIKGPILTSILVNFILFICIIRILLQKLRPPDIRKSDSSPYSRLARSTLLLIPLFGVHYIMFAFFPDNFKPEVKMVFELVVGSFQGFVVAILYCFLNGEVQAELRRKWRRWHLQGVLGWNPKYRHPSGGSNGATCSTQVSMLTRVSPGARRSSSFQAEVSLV

[3] = molecular target: T3, VPAC2 (Homo sapiens, UniProt P41587); assay: Activity and selectivity of PAC1 agonists on VPAC2; conditions: receptor agonist on VPAC2
T3 sequence (P41587 24-438): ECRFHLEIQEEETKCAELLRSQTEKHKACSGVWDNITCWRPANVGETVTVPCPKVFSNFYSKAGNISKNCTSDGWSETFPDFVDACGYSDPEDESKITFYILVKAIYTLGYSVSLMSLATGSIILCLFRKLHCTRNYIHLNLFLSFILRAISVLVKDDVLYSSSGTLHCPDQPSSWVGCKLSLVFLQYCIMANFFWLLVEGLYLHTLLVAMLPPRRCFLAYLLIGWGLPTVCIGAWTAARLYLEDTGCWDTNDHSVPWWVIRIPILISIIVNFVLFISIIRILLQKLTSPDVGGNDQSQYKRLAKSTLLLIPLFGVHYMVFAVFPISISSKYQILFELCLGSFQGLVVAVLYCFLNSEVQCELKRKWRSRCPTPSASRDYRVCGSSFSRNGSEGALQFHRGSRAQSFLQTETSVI

Maxadilan: 65 amino acid peptide originally isolated from the sand-fly; PAC1-selective agonist
agonist activity and selectivity ([1]; PAC1 versus VPAC1 and VPAC2): highly-selective for PAC1 versus VPAC1 and VPAC2 | pEC50 ([1]; receptor agonist on PAC1): 10.22 | pEC50 [2]: < 6.00 | pEC50 [3]: < 6.00
